# From US8071348B2, “Protein tyrosine phosphatase substrate-trapping double mutant and uses thereof” (Albert Einstein College of Medicine of Yeshiva University, priority 2002, dated 2011)
# [ ]: non-standard residue; d: D form. F2Pmp = N[C@@H](Cc1ccc(C(F)(F)P(=O)(O)O)cc1)C(=O)O
# T1: Ac-Asp-Ala-Asp-Glu-F2Pmp-Leu-NH2
# T1 construct: Synthetic hexapeptide printed in three-letter code; also called F2Pmp-containing peptide; non-hydrolyzable substrate analog
# T1 peptide: Ac-DADE[F2Pmp]L-NH2
# T2: EGFR^988-998 peptide, DADEpYLIPQQG (Homo sapiens, UniProt P18031, D181A/Q262A)
# T2 construct: The catalytic domain of PTP1B (residues 1 to 321) was used for in vitro study; made in house; host or cells: E. coli (pT7-7 plasmids)
# T2 sequence (P18031 1-321 D181A/Q262A): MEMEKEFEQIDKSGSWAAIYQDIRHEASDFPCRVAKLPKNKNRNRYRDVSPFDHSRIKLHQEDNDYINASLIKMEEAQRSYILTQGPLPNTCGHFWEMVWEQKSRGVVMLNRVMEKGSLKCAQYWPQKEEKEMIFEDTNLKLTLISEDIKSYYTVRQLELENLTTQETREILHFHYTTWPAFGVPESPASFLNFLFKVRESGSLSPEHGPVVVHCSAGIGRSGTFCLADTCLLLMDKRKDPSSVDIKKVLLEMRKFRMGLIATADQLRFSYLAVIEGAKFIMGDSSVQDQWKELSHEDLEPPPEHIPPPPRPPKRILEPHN
# B1: PTP1B/D181A/Q262A, catalytic domain (residues 1 to 321) (enzyme, human, UniProt P18031 1-321, looked up)
# chain: MEMEKEFEQIDKSGSWAAIYQDIRHEASDFPCRVAKLPKNKNRNRYRDVSPFDHSRIKLHQEDNDYINASLIKMEEAQRSYILTQGPLPNTCGHFWEMVWEQKSRGVVMLNRVMEKGSLKCAQYWPQKEEKEMIFEDTNLKLTLISEDIKSYYTVRQLELENLTTQETREILHFHYTTWPAFGVPESPASFLNFLFKVRESGSLSPEHGPVVVHCSAGIGRSGTFCLADTCLLLMDKRKDPSSVDIKKVLLEMRKFRMGLIATADQLRFSYLAVIEGAKFIMGDSSVQDQWKELSHEDLEPPPEHIPPPPRPPKRILEPHN
# notes: range 1-321; Used in vitro (ITC, kinetics); also called PTP1B substrate-trapping double mutant
# Tests used:
# [1] = target: T1, Ac-Asp-Ala-Asp-Glu-F2Pmp-Leu-NH2; test: ITC, 25 C, pH 7.0
# Procedure: All isothermal titration calorimetry experiments were performed using an MCS Isothermal Titration Calorimetry System from Microcal Inc. (Northampton, Mass.). Experiments at pH 7.0 were conducted at 25° C., in 50 mM 3,3-dimethylglutarate buffer containing 1 mM DTT. The ionic strength of the buffer was adjusted to 0.15 M by addition of NaCl. Protein concentration in the calorimeter cell was 27-85 µM, while the ligand concentration in the syringe was 0.37-1 mM.
# A typical titration curve and binding isotherm for the binding of D181A/Q262A to Ac-Asp-Ala-Asp-Glu-F_2Pmp-Leu-NH_2 is shown in FIG. 3. From curve-fitting of the binding isotherms, the stoichiometry for the binding of the peptide to D181A/Q262A was determined to be 1:1.
# [2] = target: T2, EGFR^988-998 peptide, DADEpYLIPQQG; test: Kinetic constants for PTP1B-catalyzed hydrolysis of pTyr-containing EGFR988-998 peptide; type: biochemical; settings: EGFR988-998 peptide as substrate
# In short: (§1)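 PTP1B catalytic domain (residues 1–321), wild-type or mutant, expressed in E. coli. Continuous assay at 25° C., pH 7.0, in 50 mM 3,3-dimethylglutarate with 1 mM EDTA (ionic strength 0.15 M). Dephosphorylation followed by absorbance increase at 282 nm or fluorescence at 305 nm to obtain kcat and Km.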
# [3] = system: EGFR^988-998 peptide, DADEpYLIPQQG; test: as above; type: biochemical; settings: EGFR988-998 peptide as substrate; 25° C. and pH 7.0
# In short: as §1
molecule,measurement,setting,value
B1,fold higher affinity than the D181A mutant,[1],~6 fold
same,fold lower Kd than wild-type PTP1B and the C215S mutant,[1],~30 fold
same,"kcat, fold lower than D181A",[2],24 fold
same,Km,[3],51 ± 4 µM
same,kcat,[3],(2.7 ± 0.1) × 10^−3 s^−
